Laboratory results published in patent publication US11529390B2, “PCSK9 inhibitory polypolypeptides and methods of use” (INSTITUT DE CARDIOLOGIE DE MONTREAL, priority 2015, dated 2022).
Like-named read-outs stand apart in the source and are kept apart here. Ends that are not written are not given here. Peptide text beside a SMILES is read from it. * marks the point of attachment. Cbz = O=C(OCc1ccccc1)*

What was measured:
[1] = target: PCSK9 binding to the LDLR EGFA domain (Homo sapiens, UniProt Q8NBP7); experiment: In vitro PCSK9-LDLR(EGFA) competitive assay, plate coated with LDLR-EGFA domain; conditions: 100 or 10 μM peptide, 100 ng wild-type human His-tagged PCSK9, pH6.1, 2 h
Protocol: SEQ ID. NO. 4 peptide was dissolved to 10 mM (working dilution) in DMEM media (Wisent Cat. #319-005-CL). In a total of 100 μl reaction buffer (HEPES buffer containing NaCl, CaCl2), BSA and proclin 300, pH6.1), SEQ ID. NO. 4 were added to a final concentration of 100 or 10 μM together with 100 ng wild-type human recombinant His-tagged PCSK9. Reaction buffer was added to 96 wells coated with recombinant LDLR-EGFA domain (involved in PCSK9-LDLR interaction) and incubated at room temperature for 2 h on an orbital microplate shaker (300 rpm). Following incubation, wells were washed 4 times with wash buffer and biotinylated anti-His-tag monoclonal antibody was added into each well and incubated for 1 h at room temperature. Following incubation wells were washed 4 times, and HRP-conjugated streptatvidin was added to each well and incubated for 20 min. Following 4 washes, 100 μl substrate reagent (TMB, tetra-methylbenzidine) were added for 15 min to each wells and enzymatic reaction stopped by adding 100 μl stop solution (1N […]). For each well, absorbance at 450 nm and 540 nm was measure and relative PCSK9 binding to LDLR-EGFA was determined according to a standard curve (100 ng to 1.56 ng). Inhibitory activities of SEQ ID. […]

[2] = test system: PCSK9-induce degradation of LDLR; experiment: PCSK9-induced LDLR-EGFP degradation in GRP94 knockdown HEK293 cells with proteasome inhibitor; assay type: cell-based, human; conditions: 5 μM, HEK293, overnight
Protocol: FIG. 4: Knockdown of GRP94 increases LDLR degradation by PCSK9. At day 0, HEK293 cells were transfected either with a non-targeting siRNA (−) or with siRNAs against GRP94 (+). At day 1, cells were transfected with an empty vector (−) or with plasmids encoding for LDLR-EGFP (SEQ. ID. NO. 69) alone or in combination with PCSK9-mCherry (SEQ. ID. NO. 70). At day 2, cells were washed and incubated overnight with DMSO (−) or 5 μM MG132 overnight in complete media. (a) Total LDLR-EGFP, PCSK9-mCherry, GRP94 and β-actin protein levels were analyzed by immune-blotting in cell lysates as indicated. (b) LDLR-GFP and PCSK9-mCherry were visualized in live cells by confocal microscopy as conditions described above. Data are representative of at least three independent experiments.
To decipher the role of GRP94 on PCSK9, we took advantage of HEK293 cells, as they are easily transfectable in addition to be PCSK9-negative. (Seidah et al., 2003) Cells were transfected with either non-targeting siRNA (−) or with siRNAs against human GRP94 (+) and 24 h later without (−) or plasmids encoding for fluorescent PCSK9-mCherry or LDLR-EGFP (FIG. 4). Twenty-hours post cDNA transfections, cells were incubated either with vehicle (DMSO) or 5 μM MG132, a proteasome inhibitor.

[3] = test system: LDLR degradation induced by overexpression of PCSK9; experiment: LDLR degradation after co-expression with PCSK9-V5 (intracellular pathway), immunoblot; assay type: cell-based, human
Protocol: FIG. 7: SEQ ID NO. 6 prevents PCSK9-induced LDLR degradation. (a) Left; Coomassie staining of purified recombinant SEQ ID NO. 6 and PCSK9 separated by SDS-PAGE is shown. Right; HepG2 cells were incubated in DMEM without or with 0, 25, 100 or 250 nM SEQ ID NO. 6 alone or in presence of recombinant PCSK9. (b) HepG2 cells were transfected without (−) or with PCSK9-V5 in absence (−) or presence SEQ ID NO. 66 or SEQ ID NO. 46. Total LDLR, PCSK9, SEQ ID NO. 66, SEQ ID NO. 46 and β-actin protein levels were analyzed by immunoblotting in cell lysates and conditioned media as indicated. Data are representative of at least three independent experiments.
We next tested whether SEQ ID. NO. 6 could alter the capacity of PCSK9 to induce LDLR degradation. HepG2 cells were incubated overnight with an increasing amount of recombinant SEQ ID. NO. 6 in absence or presence of exogenous PCSK9 (FIG. 7a). […] NO. […] Although that SEQ ID. NO. […] NO. […] (Poirier et al., 2009) As PCSK9 was also shown to induce LDLR degradation via an intracellular pathway, (Poirier et al., 2009) we evaluated to ability of SEQ ID. NO. 66 or SEQ ID. NO. 46 to neutralize PCSK9 in HepG2 cells following co-expression (FIG. 7b). Similar to the extracellular pathway (FIGS. 5b and 7a), both SEQ ID. NO. 66 and SEQ ID. NO. […] NO. 66 and specifically SEQ ID. NO. […]

PCSK9-V5 = target: T1, PCSK9-V5 (Homo sapiens, UniProt Q8NBP7); experiment: Co-immunoprecipitation of GRP94 constructs with PCSK9-V5 in transfected HEK293 cells; assay type: binding
T1 construct: Full-length human V5-tagged PCSK9 and LDLR were subcloned into pIRES2-EGFP; expressed in transfected cells; host or cells: HEK293
Protocol: FIG. 2: Mapping of the PCSK9-GRP94 interacting domain. (a-b) HEK293 cells were transfected without (−) or with (+) PCSK9-V5 or SEQ ID NO. 66, 64 or 65. A PCSK9 V5 epitope-tag fusion protein (PCSK9-V5) was immune-precipitated from cell lysates using mAb-V5 antibody (IP: V5) and immune-blotted as indicated. Total GRP94 (SEQ. ID. NO. 3) and PCSK9 (SEQ. ID. NO. 1) protein levels were analyzed by immune-blotting in cell lysates (input) and conditioned media. (c) Left panel; HEK293 cells were transfected without (−) or with (+) PCSK9-V5, SEQ. ID. NO. 66 or 46. PCSK9-V5 was immune-precipitated for cell lysates (IP: V5) and immune-blotted (IB) as indicated. Total GRP94 and PCSK9 protein levels were also analyzed by immune-blotting and herein used as a control (input). Right panel; GRP94 homodimer (gray and yellow) crystal structure was determined from PDB file #2O1V using MacPymol software. […] 6 in which critical residues for PCSK9 binding determined in (b) are indicated in blue for SEQ. ID. NO. 64 and red for SEQ. ID. NO. 65. Data are representative of at least three independent experiments.
For identification of novel PCSK9 interactors, HepG2 or Huh-7 cells (55 cm2) were washed three times in phosphate-buffered saline (PBS) and incubated with 1 mM dithiobis[succinimidylpropionate] (DSP; Cat. #22585, Thermo Scientific), a thiol-cleavable cross-linking reagent, for 30 min at room temperature and subsequently switch for 15 min into a stop solution (15 mM Tris, pH 7.5). Cells were then lysed in complete radio-immune precipitation assay (RIPA) buffer (50 mM Tris/HCl, pH 8.0, 1% (v/v) Nonidet P40, 0.5% sodium deoxycholate, 150 mM NaCl and 0.1% (v/v) sodium dodecyl sulfate (SDS)) supplemented with a complete protease inhibitor mixture (Cat. #11 697 498 001, Roche Applied Science), passed 25 times through a 22-gauge needle and centrifuged at 11,000 g for 15 min at 4° C. Supernatants were incubated and rotated overnight with pre-immune serum, rabbit anti-hPCSK9 (amino acids 31-454) (1:250; Dr. Nabil Seidah, Clinical Research Institute of Montreal) or mouse anti-V5-tag (1:500; Cat. #R96025, Life Technologies) together with 50 μl protein A/G PLUS-agarose (Cat. #sc-2003, Santa Cruz). Following overnight incubation, beads were washed six times in RIPA buffer and resuspended in 75 μl Laemmli sample buffer. Co-immunoprecipitated (Co-IP) proteins were separated by 8% SDS-polyacrylamide gel electrophoresis and visualized using the Pierce silver stain kit (Cat. #24600, Thermo Scientific) according the manufacturer's instructions. All other Co-IP experiments were performed as described without the cross-linking step and in SDS-deprived RIPA buffer. HA-tagged proteins and GRP94 were immunoprecipitated with mouse anti-HA-tag (1:500; Cat. #H3663, Sigma-Aldrich) or rat anti-Grp94 (9G10, 1:1000; Cat. #ADI-SPA-850, Enzo Life Sciences).
We next decided to map GRP94 domain(s) important for PCSK9 protein-protein interaction. The overall domain structure of GRP94 includes a signal polypeptide (amino acids; aa1-21) followed by a N-terminal enzymatic ATP-binding domain (aa22-651), client-binding domain (CBD; aa652-678), C-terminal dimerization domain (aa679-799) and a KDEL polypeptide sequence (aa800-803) allowing retention of GRP94 in the endoplasmic reticulum. (Dollins et al., 2007; Maki et al., 1990; Wu et al., 2012) Thus, we first generated cDNA constructs encoding secretable HA-tagged forms of human GRP94 lacking its C-terminal KDEL polypeptide (SEQ ID. NO. 66; FIG. 2). HEK293 cells were transfected without or with SEQ ID. NO. 66 in absence or presence of PCSK9-V5 (FIG. 2a). […] NO. 66 is well expressed (Input; IB: HA) and secreted into media and that SEQ ID. NO. […] It was reported that a 27 aa C-terminal hydrophobic loop structure within GRP94 client-binding domain (CBD, amino acids aa652-678; ^652[…], SEQ ID. NO. 4) was important for folding and interaction with Toll-like receptors and integrins. (Wu et al., 2012) Deletion or alanine-scan mutations in SEQ ID. […]

T1 sequence (Q8NBP7 153-692): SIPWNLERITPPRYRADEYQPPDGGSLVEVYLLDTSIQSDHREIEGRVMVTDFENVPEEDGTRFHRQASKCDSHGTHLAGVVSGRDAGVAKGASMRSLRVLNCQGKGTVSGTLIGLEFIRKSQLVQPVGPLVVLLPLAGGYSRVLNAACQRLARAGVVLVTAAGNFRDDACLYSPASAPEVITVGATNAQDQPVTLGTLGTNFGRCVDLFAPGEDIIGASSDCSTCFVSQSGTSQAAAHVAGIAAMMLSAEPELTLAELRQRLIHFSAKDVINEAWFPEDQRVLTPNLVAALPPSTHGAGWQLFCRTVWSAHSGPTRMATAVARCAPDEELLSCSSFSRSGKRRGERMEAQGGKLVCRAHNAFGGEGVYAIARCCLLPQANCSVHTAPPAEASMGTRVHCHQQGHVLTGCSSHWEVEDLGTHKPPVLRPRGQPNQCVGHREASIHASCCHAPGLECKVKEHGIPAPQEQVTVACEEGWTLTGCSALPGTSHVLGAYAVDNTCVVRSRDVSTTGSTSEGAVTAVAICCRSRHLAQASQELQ
PCSK9 binding to the LDLR EGFA domain, sequence (Q8NBP7 153-692): as above
PCSK9 binding to the LDLR EGFA domain, sequence (Q8NBP7 31-152 partner limits assumed): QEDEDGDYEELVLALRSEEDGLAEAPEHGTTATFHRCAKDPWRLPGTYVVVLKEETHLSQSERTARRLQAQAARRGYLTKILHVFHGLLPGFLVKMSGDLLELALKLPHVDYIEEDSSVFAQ

Molecule: YGWSGNMERIMKAQAYQTGKDISTNYY (YGWSGNMERIMKAQAYQTGKDISTNYY-NH2) [SEQ ID. NO. 4]
- Inhibition of binding of PCSK9 to the LDLR EGFA domain [1]: inhibit binding of PCSK9 to the LDLR EGFA domain
- Inhibition of binding of PCSK9 to the LDLR EGFA domain ([1]; listed as SEQ. ID. NO. 4): inhibits binding of PCSK9 to the LDLR EGFA domain

Molecule: CC(C)C[C@@H](C=O)NC(=O)[C@H](CC(C)C)NC(=O)[C@H](CC(C)C)NC(=O)OCc1ccccc1 [MG132] (Cbz-Leu-Leu-Leu-aldehyde)
- Block of PCSK9-induced LDLR degradation after GRP94 knockdown [2]: not blocked

B1: SEQ ID. NO. 66: secretable HA-tagged form of human GRP94 lacking its C-terminal KDEL sequence (protein)
chain: MRALWVLGLCCVLLTFGSVRADDEVDVDGTVEEDLGKSREGSRTDDEVVQREEEAIQLDGLNASQIRELREKSEKFAFQAEVNRMMKLIINSLYKNKEIFLRELISNASDALDKIRLISLTDENALSGNEELTVKIKCDKEKNLLHVTDTGVGMTREELVKNLGTIAKSGTSEFLNKMTEAQEDGQSTSELIGQFGVGFYSAFLVADKVIVTSKHNNDTQHIWESDSNEFSVIADPRGNTLGRGTTITLVLKEEASDYLELDTIKNLVKKYSQFINFPIYVWSSKTETVEEPMEEEEAAKEEKEESDDEAAVEEEEEEKKPKTKKVEKTVWDWELMNDIKPIWQRPSKEVEEDEYKAFYKSFSKESDDPMAYIHFTAEGEVTFKSILFVPTSAPRGLFDEYGSKKSDYIKLYVRRVFITDDFHDMMPKYLNFVKGVVDSDDLPLNVSRETLQQHKLLKVIRKKLVRKTLDMIKKIADDKYNDTFWKEFGTNIKLGVIEDHSNRTRLAKLLRFQSSHHPTDITSLDQYVERMKEKQDKIYFMAGSSRKEAESSPFVERLLKKGYEVIYLTEPVDEYCIQALPEFDGKRFQNVAKEGVKFDESEKTKESREAVEKEFEPLLNWMKDKALKDKIEKAVVSQRLTESPCALVASQYGWSGNMERIMKAQAYQTGKDISTNYYASQKKTFEINPRHPLIRDMLRRIKEDEDDKTVLDLAVVLFETATLRSGYLLPDTKAYGDRIERMLRLSLNIDPDAKVEEEPEEEPEETAEDTTEDTEQDEDEEMDVGTDEEEETAKESTAEYPYDVPDYA
- Block of LDLR degradation induced by overexpression of PCSK9 [3]: significantly block
- Interaction (binding) with PCSK9 by co-immunoprecipitation (PCSK9-V5): interacts in complex with PCSK9
- Interaction (binding) with PCSK9 by co-immunoprecipitation (PCSK9-V5; listed as SEQ. ID NO. 66): specifically binds to PCSK9

B2: SEQ ID. NO. 46: secretable HA-tagged GRP94 signal polypeptide, client-binding domain and C-terminal domain lacking KDEL (CBD-CT) (protein)
chain: MRALWVLGLCCVLLTFGSVRAYGWSGNMERIMKAQAYQTGKDISTNYYASQKKTFEINPRHPLIRDMLRRIKEDEDDKTVLDLAVVLFETATLRSGYLLPDTKAYGDRIERMLRLSLNIDPDAKVEEEPEEEPEETAEDTTEDTEQDEDEEMDVGTDEEEETAKESTAEYPYDVPDYA
- Block of LDLR degradation induced by overexpression of PCSK9 [3]: significantly block
